US20110244493A1 (COMMONWEALTH MEDICAL COLLEGE, published 2011)

Target: T1, cytoskeletal associated protein 4 (CKAP4), endogenous in HeLa or normal bladder epithelial cells (Homo sapiens, UniProt Q07065 1-602, reversibly palmitoylated on cysteine 100)
T1 sequence: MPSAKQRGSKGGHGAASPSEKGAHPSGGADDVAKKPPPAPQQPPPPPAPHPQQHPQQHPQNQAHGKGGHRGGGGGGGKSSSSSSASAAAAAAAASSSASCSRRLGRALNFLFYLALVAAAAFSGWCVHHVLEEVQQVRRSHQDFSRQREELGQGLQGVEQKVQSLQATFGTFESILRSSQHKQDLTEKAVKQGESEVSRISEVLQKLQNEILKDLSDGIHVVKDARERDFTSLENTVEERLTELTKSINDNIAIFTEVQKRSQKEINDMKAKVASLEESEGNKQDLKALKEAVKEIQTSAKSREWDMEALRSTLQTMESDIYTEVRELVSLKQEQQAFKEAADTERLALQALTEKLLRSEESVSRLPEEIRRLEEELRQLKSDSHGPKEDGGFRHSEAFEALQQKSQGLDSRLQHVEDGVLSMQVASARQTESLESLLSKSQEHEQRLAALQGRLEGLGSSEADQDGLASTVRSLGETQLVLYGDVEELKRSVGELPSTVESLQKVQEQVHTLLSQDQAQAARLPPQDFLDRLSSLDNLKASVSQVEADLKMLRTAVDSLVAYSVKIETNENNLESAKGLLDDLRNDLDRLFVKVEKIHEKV
Assay: cell-based or functional assay

B1: antiproliferative factor (APF), synthetic (peptide)
peptide: TVPAAVVVA
modifications: sialic acid α-2,3 linked to galactose P1-3-N-acetylgalactosamine, which is α-O-linked to the N-terminal threonine residue of the nonapeptide (printed as '3 carbohydrate moieties-T-V-P-A-A-V-V-V-A')
Q: Which “abundance of CKAP4 in the nucleus (nuclear fractionation and Western blot, HeLa cells)” value does the source give for B1 here?
A: Its value is 5 fold.
